This is an account of results in the supplement of paper PMC10567573.

To fix the notation:
B1: PTPN9 (parent)
chain: TQHLPRECLPENLGGYVKIDLATW
B2: KRT13 (parent)
chain: TSSASVTTTSNASGRRTSDVRRP
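Note: lentivirally expressed fusions sorted by FACS into six bins by GFP to DsRed ratio, PSI derived from sequencing read proportions per bin multiplied by bin number.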

The variants in the first data set derive from B1. Put plainly: protein stability index of a GFP-peptide fusion (GPS, HEK-293T) (PSI 1-6); higher = more stable. Conditions: c terminus: a fixed tail appended.
On to TQHLPRECLPENLGGYVKIDYATW, for which the protein stability index was found to be 1.97.

For TQHLPRECLPENLGGYVKIDLTTW, the protein stability index is 1.9.

As for TQHLPRECLPENLGGYVKIDLQTW, the protein stability index stood at 2.01.

For the variant TQHLPRECLPENLGGYVKIDLRTW, the protein stability index turned out to be 1.23.

As for TQHLPRECLPENLGGYVKIDLNTW, the protein stability index stood at 2.35.

Regarding TQHLPRECLPENLGGYVKIDLPTW, the protein stability index stood at 2.49.

Turning to TQHLPRECLPENLGGYVKIDLDTW, the protein stability index came out at 3.18.

In the case of TQHLPRECLPENLGGYVKIDLITW, the protein stability index was determined as 1.87.

Turning to TQHLPRECLPENLGGYVKIDLHTW, the protein stability index was 1.78.

Turning to TQHLPRECLPENLGGYVKIDLSTW, the protein stability index amounted to 1.72.

As to TQHLPRECLPENLGGYVKIDLMTW, the protein stability index worked out at 1.65.

As for TQHLPRECLPENLGGYVKIDLGTW, the protein stability index turned out to be 1.64.

As to TQHLPRECLPENLGGYVKIDLWTW, the protein stability index stood at 2.09.

Regarding TQHLPRECLPENLGGYVKIDLYTW, the protein stability index is 2.21.

Turning to TQHLPRECLPENLGGYVKIDLVTW, the protein stability index came to 2.08.

On to TQHLPRECLPENLGGYVKIDLETW, for which the protein stability index was found to be 2.35.

Take TQHLPRECLPENLGGYVKIDLFTW: the protein stability index was 2.43.

Regarding TQHLPRECLPENLGGYVKIDLKTW, the protein stability index turned out to be 2.08.

Turning to TQHLPRECLPENLGGYVKIDLCTW, the protein stability index turned out to be 1.92.

TQHLPRECLPENLGGYVKIDLLTW: the protein stability index worked out at 3.29.

For the variant TQHLPRECLPENLGGYVKIDLANW, the protein stability index turned out to be 2.06.

As for TQHLPRECLPENLGGYVKIDLAHW, the protein stability index came to 2.09.

Consider TQHLPRECLPENLGGYVKIDLAYW, for which the protein stability index was 1.71.

Consider TQHLPRECLPENLGGYVKIDLAQW, for which the protein stability index worked out at 2.58.

Turning to TQHLPRECLPENLGGYVKIDLAPW, the protein stability index was 1.99.

Regarding TQHLPRECLPENLGGYVKIDLAAW, the protein stability index is 1.83.

With TQHLPRECLPENLGGYVKIDLAMW, the protein stability index came to 1.83.

On to TQHLPRECLPENLGGYVKIDLAEW, for which the protein stability index came out at 2.73.

As to TQHLPRECLPENLGGYVKIDLAIW, the protein stability index was found to be 2.02.

As for TQHLPRECLPENLGGYVKIDLAVW, the protein stability index is 3.6.

With TQHLPRECLPENLGGYVKIDLALW, the protein stability index was 1.76.

As for TQHLPRECLPENLGGYVKIDLACW, the protein stability index worked out at 1.38.

For TQHLPRECLPENLGGYVKIDLAWW, the protein stability index worked out at 2.94.

Regarding TQHLPRECLPENLGGYVKIDLADW, the protein stability index came out at 2.37.

As for TQHLPRECLPENLGGYVKIDLAGW, the protein stability index amounted to 1.9.

On to TQHLPRECLPENLGGYVKIDLASW, for which the protein stability index came out at 2.02.

For the variant TQHLPRECLPENLGGYVKIDLARW, the protein stability index is 1.89.

On to TQHLPRECLPENLGGYVKIDLAKW, for which the protein stability index was determined as 2.38.

For the variant TQHLPRECLPENLGGYVKIDLAFW, the protein stability index stood at 2.17.

Consider TQHLPRECLPENLGGYVKIDLATV, for which the protein stability index is 2.06.

As for TQHLPRECLPENLGGYVKIDLATD, the protein stability index was 3.88.

Take TQHLPRECLPENLGGYVKIDLATH: the protein stability index was determined as 2.66.

TQHLPRECLPENLGGYVKIDLATG: the protein stability index was 3.38.

TQHLPRECLPENLGGYVKIDLATK: the protein stability index was determined as 3.59.

For the variant TQHLPRECLPENLGGYVKIDLATS, the protein stability index turned out to be 3.06.

Take TQHLPRECLPENLGGYVKIDLATA: the protein stability index was determined as 2.84.

For the variant TQHLPRECLPENLGGYVKIDLATC, the protein stability index was found to be 2.28.

For the variant TQHLPRECLPENLGGYVKIDLATM, the protein stability index worked out at 2.05.

Regarding TQHLPRECLPENLGGYVKIDLATR, the protein stability index was determined as 2.61.

Turning to TQHLPRECLPENLGGYVKIDLATI, the protein stability index stood at 1.94.

With TQHLPRECLPENLGGYVKIDLATF, the protein stability index was 1.8.

Take TQHLPRECLPENLGGYVKIDLATQ: the protein stability index came out at 3.13.

Consider TQHLPRECLPENLGGYVKIDLATL, for which the protein stability index came to 2.12.

For the variant TQHLPRECLPENLGGYVKIDLATN, the protein stability index turned out to be 3.51.

TQHLPRECLPENLGGYVKIDLATP: the protein stability index came out at 2.86.

Consider TQHLPRECLPENLGGYVKIDLATY, for which the protein stability index worked out at 1.91.

Consider TQHLPRECLPENLGGYVKIDLATT, for which the protein stability index was 3.

As for TQHLPRECLPENLGGYVKIDLATE, the protein stability index worked out at 4.07.

Another data set covers variants of B2. Described as above. Conditions: c terminus: native.
TSEASVTTTSNASGRRTSDVRRP: the protein stability index was found to be 2.8.

As to TSVASVTTTSNASGRRTSDVRRP, the protein stability index was 1.93.

Regarding TSHASVTTTSNASGRRTSDVRRP, the protein stability index was determined as 2.54.

Take TSGASVTTTSNASGRRTSDVRRP: the protein stability index worked out at 3.79.

Regarding TSAASVTTTSNASGRRTSDVRRP, the protein stability index is 2.61.

In the case of TSTASVTTTSNASGRRTSDVRRP, the protein stability index worked out at 1.81.

TSYASVTTTSNASGRRTSDVRRP: the protein stability index came out at 1.46.

Regarding TSIASVTTTSNASGRRTSDVRRP, the protein stability index is 2.32.

As for TSKASVTTTSNASGRRTSDVRRP, the protein stability index worked out at 2.86.

Turning to TSWASVTTTSNASGRRTSDVRRP, the protein stability index was 1.65.

As for TSCASVTTTSNASGRRTSDVRRP, the protein stability index is 1.96.

For the variant TSDASVTTTSNASGRRTSDVRRP, the protein stability index is 2.57.

Take TSQASVTTTSNASGRRTSDVRRP: the protein stability index worked out at 2.19.

For TSLASVTTTSNASGRRTSDVRRP, the protein stability index came to 1.99.

Turning to TQSASVTTTSNASGRRTSDVRRP, the protein stability index stood at 1.06.

TDSASVTTTSNASGRRTSDVRRP: the protein stability index was found to be 2.46.

Regarding TESASVTTTSNASGRRTSDVRRP, the protein stability index was determined as 3.22.

As for TYSASVTTTSNASGRRTSDVRRP, the protein stability index is 2.08.

In the case of TVSASVTTTSNASGRRTSDVRRP, the protein stability index came to 3.9.

Regarding TNSASVTTTSNASGRRTSDVRRP, the protein stability index amounted to 3.25.

With TKSASVTTTSNASGRRTSDVRRP, the protein stability index turned out to be 3.48.

For TLSASVTTTSNASGRRTSDVRRP, the protein stability index is 2.02.

On to TFSASVTTTSNASGRRTSDVRRP, for which the protein stability index turned out to be 2.04.

With TTSASVTTTSNASGRRTSDVRRP, the protein stability index is 2.82.

For the variant TGSASVTTTSNASGRRTSDVRRP, the protein stability index was 2.56.

Consider TPSASVTTTSNASGRRTSDVRRP, for which the protein stability index was found to be 3.07.

As to WSSASVTTTSNASGRRTSDVRRP, the protein stability index came to 2.43.

With FSSASVTTTSNASGRRTSDVRRP, the protein stability index stood at 4.09.

For the variant DSSASVTTTSNASGRRTSDVRRP, the protein stability index was 2.46.

With ISSASVTTTSNASGRRTSDVRRP, the protein stability index amounted to 2.25.

YSSASVTTTSNASGRRTSDVRRP: the protein stability index came to 3.12.

Regarding HSSASVTTTSNASGRRTSDVRRP, the protein stability index turned out to be 2.22.

With ASSASVTTTSNASGRRTSDVRRP, the protein stability index worked out at 3.56.

On to QSSASVTTTSNASGRRTSDVRRP, for which the protein stability index turned out to be 2.54.

Regarding VSSASVTTTSNASGRRTSDVRRP, the protein stability index worked out at 2.42.

As to NSSASVTTTSNASGRRTSDVRRP, the protein stability index turned out to be 1.34.

For the variant ESSASVTTTSNASGRRTSDVRRP, the protein stability index came out at 2.33.
